# Reference: US20060263849A1, “Glucagon-like peptide-1 analogs” (priority 2000, published 2006)
# Values joined by “and” are separate entries in the source; they are usually repeats but may differ in a detail not shown here. Equal values may be shown once. Where no end group is shown, it is not given here.
# Key:
# [1] = GLP Aggregation Assay (time to onset of aggregation, turbidity at 350 nm); assay type: physicochemical; details: for Aggregation Time: 0.3 mg/mL in 10 mM citrate, 10 mM phosphate, 150 mM NaCl, pH 7.4 to 7.5, 37° C., stirred, turbidity at 350 nm
# Experimental: GLP peptides of this invention were analyzed with respect to their potential to aggregate in solution. In general, peptides in solution were stirred at elevated temperature in a suitable buffer while recording turbidity at 350 nm as a function of time. Time to the onset of aggregation was measured to quantify the potential of a given GLP molecule to aggregate under these stressed conditions.
# A GLP-1 compound was first dissolved under alkaline conditions (pH 10.5) for 30 minutes to dissolve any pre-aggregated material. The solution was then adjusted to pH 7.4 and filtered. Specifically, 4 mg of a lyophilized GLP-1 compound was dissolved in 3 ml of 10 mM phosphate/10 mM citrate. The pH was adjusted to 10.0-10.5 and held for 30 minutes. The solution was adjusted with HCl to pH 7.4 and filtered through a suitable filter, for example a Millex GV syringe filter (Millipore Corporation, Bedford, Mass.). This solution was then diluted to a final sample containing 0.3 mg/mL protein in 10 mM citrate, 10 mM phosphate, 150 mM NaCl, and adjusted to pH 7.4 to 7.5. […] Every five minutes the turbidity of the solution was measured at 350 nm on an AVIV Model 14DS UV-VIS spectrophotometer (Lakewood, N.J.). For 30 seconds prior to and during the measurement the solution was stirred using a magnetic stir bar from Starna Cells, Inc. (Atascadero, Calif.). An increase in OD at 350 nm indicates aggregation of the GLP-peptide. The time to aggregation was approximated by the intersection of linear fits to the pre-growth and growth phase according to method of Drake (Arvinte T, Cudd A, and Drake A F. (1993) J. Bio. Chem. 268, 6415-6422).
# The cuvette was cleaned between experiments with a caustic soap solution (e.g., Contrad-70).
# The results for a number of GLP-1 compounds of the present invention are reported in Table 1 as the time in hours required for the compound to aggregate.
# GLP-1 receptor = GLP-1 receptor activation, in vitro assays; assay type: cell-based; details: for GLP-1 Receptor Activation: activity relative to the activity of GLP-1(7-37)OH
# Source text: “Insulinotropic activity” refers to stimulating insulin secretion in response to elevated glucose levels, thereby causing glucose uptake by cells and decreased serum glucose levels. Insulinotropic activity can be assessed by methods known in the art, including using in vivo experiments and in vitro assays that measure GLP-1 receptor binding activity or receptor activation, e.g., assays employing pancreatic islet cells or insulinoma cells, as described in EP 619,322 to Gelfand, et al., and U.S. Pat. No. 5,120,712, respectively. The entire teachings of these references are incorporated herein by reference.
# The ability of the GLP-1 compounds of the present invention to activate the GLP-1 receptor was assessed using in vitro assays such as those described in EP 619,322 to Gelfand, et al., and U.S. Pat. No. 5,120,712, respectively. The entire teachings of these references are incorporated herein by reference.
# [2] = Zinc precipitation of GLP-1 compounds (A280 of supernatant); assay type: physicochemical; details: HEPES pH 7.4, 22° C., 18 hours
# Experimental: Individual GLP-1 compounds were prepared as described in Examples 1 or 2. 3 mg of an individual lyophilized GLP molecule was dissolved in 3 ml 0.1 M HEPES buffer pH 10.5. The pH of the resulting solution was then adjusted to between 10.0 and 10.5 with 0.2 N NaOH. The solution was stirred at ambient temperature for 30 minutes and the solution was then adjusted to a pH of 7.4 with 0.2 N HCl. The solution was filtered through an appropriate syringe filter, for example a Millex GV syringe filter (Millipore Corporation, Bedford, Mass.), and the concentration of the GLP-1 compound was estimated by measuring the absorption at 280 nm in a spectrophotometer, for example a Beckman DU640. The protein concentration was then adjusted to 200 μM in HEPES pH 7.4.
# The filtered GLP-1 solutions (100 μl) were diluted with 100 μl of 0.1 M HEPES pH 7.4 containing various levels of zinc chloride in an ELISA plate, (e.g. Falcon Microtest™ 96) resulting in 200 μl of solution containing various levels of zinc chloride and 100 μM GLP-1 compounds. These solutions were incubated at ambient temperature (22° C.) for 18 hours and then centrifuged, for example, in a Jouan CR412 centrifuge with microplate adapters. 150 μl of the supernatants after centrifugation were then transferred to a UV-readable ELISA microtiter plate (e.g. Costar UV plate) and the OD at 280 was determined in a microplate reader (e.g. Molecular Devices SPECTRAmax PLUS, SOFTmax PRO). A280 values are the result of two independent determinations.
# [3] = Zn/GLP-1 molar ratio 0, 100 μM GLP-1 compound
# [4] = Zn/GLP-1 molar ratio 0.3, 100 μM GLP-1 compound
# [5] = Zn/GLP-1 molar ratio 0.5, 100 μM GLP-1 compound
# [6] = Zn/GLP-1 molar ratio 0.7, 100 μM GLP-1 compound
# [7] = Zn/GLP-1 molar ratio 1, 100 μM GLP-1 compound
# [8] = Zn/GLP-1 molar ratio 2, 100 μM GLP-1 compound
# [9] = Zn/GLP-1 molar ratio 3, 100 μM GLP-1 compound
# [10] = Zn/GLP-1 molar ratio 5, 100 μM GLP-1 compound
Substance,GLP-1 Receptor Activation (GLP-1 receptor),GLP-1 receptor activation greater than GLP-1(7-37)OH (GLP-1 receptor; relative to GLP-1(7-37)OH),Aggregation Time [1],"A280 [2, 3]","A280 [2, 4]","A280 [2, 5]","A280 [2, 6]","A280 [2, 7]","A280 [2, 8]","A280 [2, 9]","A280 [2, 10]",aggregation time compared with GLP-1(7-37)OH ([1]; relative to GLP-1(7-37)OH),Aggregation Time in Hours ([1]; *Aggregation time determined at 30° C.)
Val^8-Ala^22-GLP-1(7-37)OH (HVEGTFTSDVSSYLEAQAAKEFIAWLVKGRG),0.56,,19 h,0.289,0.202,0.107,0.104,0.110,0.110,0.104,0.119,,
Val^8-Lys^22-GLP-1(7-37)OH (HVEGTFTSDVSSYLEKQAAKEFIAWLVKGRG),0.58,,100 h and 54 h,0.299,0.0825,0.0905,0.1195,0.1225,0.1675,0.1475,0.142,,
Val^8-Ser^22-GLP-1(7-37)OH (HVEGTFTSDVSSYLESQAAKEFIAWLVKGRG),0.50,,22 h,0.2855,0.2805,0.2665,0.1825,0.149,0.0935,0.101,0.0615,,
Val^8-Glu^35-GLP-1(7-37)OH (HVEGTFTSDVSSYLEGQAAKEFIAWLVKERG),0.15,,63 h,,,,,,,,,,
Val^8-His^24-GLP-1(7-37)OH (HVEGTFTSDVSSYLEGQHAKEFIAWLVKGRG),0.007,,3 h,,,,,,,,,,
Val^8-Lys^22-GLP-1(7-36)NH2 (HVEGTFTSDVSSYLEKQAAKEFIAWLVKGR-NH2),0.53,,24 h,,,,,,,,,,
Val^8-Glu^33-GLP-1(7-37)OH (HVEGTFTSDVSSYLEGQAAKEFIAWLEKGRG),0.039,,>70 h,,,,,,,,,,
Val^8-Lys^33-Val^34-GLP-1(7-37)OH (HVEGTFTSDVSSYLEGQAAKEFIAWLKVGRG),0.08,,22 h,,,,,,,,,,
Gly^8-Glu^30-GLP-1(7-37)OH (HGEGTFTSDVSSYLEGQAAKEFIEWLVKGRG),0.29,,>40 h,,,,,,,,,,

# Continued, in another order:
GLP-1 Receptor Activation (GLP-1 receptor),GLP-1 receptor activation greater than GLP-1(7-37)OH (GLP-1 receptor; relative to GLP-1(7-37)OH),Substance,Aggregation Time [1],"A280 [2, 3]","A280 [2, 4]","A280 [2, 5]","A280 [2, 6]","A280 [2, 7]","A280 [2, 8]","A280 [2, 9]","A280 [2, 10]",aggregation time compared with GLP-1(7-37)OH ([1]; relative to GLP-1(7-37)OH),Aggregation Time in Hours ([1]; *Aggregation time determined at 30° C.)
1.29,about 25%,Val^8-Glu^22-GLP-1(7-37)OH (HVEGTFTSDVSSYLEEQAAKEFIAWLVKGRG),72 h,0.295,0.291,0.292,0.293,0.26,0.078,0.052,0.035,over twenty fold greater,
0.01,,Val^8-Pro^22-GLP-1(7-37)OH (HVEGTFTSDVSSYLEPQAAKEFIAWLVKGRG),>75 h,0.2595,0.2455,0.2325,0.219,0.1905,0.1695,0.1615,0.171,,
0.42,,Gln^22-GLP-1(7-37)OH (HAEGTFTSDVSSYLEQQAAKEFIAWLVKGRG),7 h,0.290,0.390,0.123,0.076,0.074,0.095,0.095,0.097,,
0.17,,Val^8-Glu^34-GLP-1(7-37)OH (HVEGTFTSDVSSYLEGQAAKEFIAWLVEGRG),,,,,,,,,,,>40* Hours
0.29,,Val^8-Glu^30-GLP-1(7-37)OH (HVEGTFTSDVSSYLEGQAAKEFIEWLVKGRG),30 h,,,,,,,,,,
0.112,,Val^8-Ala^16-GLP-1(7-37)OH (HVEGTFTSDASSYLEGQAAKEFIAWLVKGRG),16 h,,,,,,,,,,
0.33,,Val^8-Lys^20-GLP-1(7-37)OH (HVEGTFTSDVSSYKEGQAAKEFIAWLVKGRG),5 h,,,,,,,,,,
0.47,,Val^8-Glu^22-Gln^23-GLP-1(7-37)OH (HVEGTFTSDVSSYLEEQAAKEFIAWLVKGRG),>20 h,,,,,,,,,,
0.40,,Val^8-Asp^22-GLP-1(7-37)OH (HVEGTFTSDVSSYLEDQAAKEFIAWLVKGRG),>90 h,0.288,0.2785,0.2845,0.287,0.291,0.184,0.1485,0.1675,,
1.175,,Val^8-Tyr^16-GLP-1(7-37)OH (HVEGTFTSDYSSYLEGQAAKEFIAWLVKGRG),5 h,,,,,,,,,,
1.0,,Val^8-Glu^22-GLP-1(7-36)NH2 (HVEGTFTSDVSSYLEEQAAKEFIAWLVKGR-NH2),>65 h,,,,,,,,,,
0.02,,Val^8-Lys^24-GLP-1(7-37)OH (HVEGTFTSDVSSYLEGQKAKEFIAWLVKGRG),22 h,,,,,,,,,,
